Experiments:
Experiment in all cases: cell-based or functional assay
[1] = target: HIV-1 Env of pseudovirus Ce1176_A3 (HIV-1)
[2] = target: HIV-1 Env of pseudovirus 89-F1_2_25 (HIV-1)
[3] = target: HIV-1 Env of pseudovirus CNE53 (HIV-1)
[4] = target: HIV-1 Env of pseudovirus 249M B10 (HIV-1)
[5] = target: HIV-1 Env of pseudovirus T278-50 (HIV-1)
[6] = target: HIV-1 Env of pseudovirus CNE19 (HIV-1)
[7] = target: HIV-1 Env of pseudovirus X1632_S2_B10 (HIV-1)
[8] = target: HIV-1 Env of pseudovirus 928-28 (HIV-1)
[9] = target: HIV-1 Env of pseudovirus 9004SS_A3_4 (HIV-1)
[10] = target: HIV-1 Env of pseudovirus 3415.v1.c1 (HIV-1)
[11] = target: HIV-1 Env of pseudovirus Q259.d2.17 (HIV-1)
[12] = target: HIV-1 Env of pseudovirus BJOX015000.11.5 (HIV-1)
[13] = target: HIV-1 Env of pseudovirus Ce1086_B2 (HIV-1)
[14] = target: HIV-1 Env of pseudovirus P0402_c2_11 (HIV-1)
[15] = target: HIV-1 Env of pseudovirus 231965.c01 (HIV-1)
[16] = target: HIV-1 Env of pseudovirus Ce704809221_1B3 (HIV-1)
[17] = target: HIV-1 Env of pseudovirus T257-31 (HIV-1)
[18] = target: HIV-1 Env of pseudovirus AC10.0.29 (HIV-1)
[19] = target: HIV-1 Env of pseudovirus Ce1172_H1 (HIV-1)
[20] = target: HIV-1 Env of pseudovirus HIV-0013095-2.11 (HIV-1)
[21] = target: HIV-1 Env of pseudovirus 3016.v5.c45 (HIV-1)
[22] = target: HIV-1 Env of pseudovirus ZM214M.PL15 (HIV-1)
[23] = target: HIV-1 Env of pseudovirus X1193_c1 (HIV-1)
[24] = target: HIV-1 Env of pseudovirus Du422.1 (HIV-1)
[25] = target: HIV-1 Env of pseudovirus 6041.v3.c23 (HIV-1)
[26] = target: HIV-1 Env of pseudovirus Q23.17 (HIV-1)
[27] = target: HIV-1 Env of pseudovirus 3817.v2.c59 (HIV-1)
[28] = target: HIV-1 Env of pseudovirus Ce703010054_2A2 (HIV-1)
[29] = target: HIV-1 Env of pseudovirus 1054_07_TC4_1499 (HIV-1)
[30] = target: HIV-1 Env of pseudovirus 246F C1G (HIV-1)
[31] = target: HIV-1 Env of pseudovirus A07412M1.vrc12 (HIV-1)
[32] = target: HIV-1 Env of pseudovirus 3301.v1.c24 (HIV-1)
[33] = target: HIV-1 Env of pseudovirus 0815.v3.c3 (HIV-1)
[34] = target: HIV-1 Env of pseudovirus 6545.v4.c1 (HIV-1)
[35] = target: HIV-1 Env of pseudovirus ZM109F.PB4 (HIV-1)
[36] = target: HIV-1 Env of pseudovirus WITO4160.33 (HIV-1)
[37] = target: HIV-1 Env of pseudovirus Ce0393_C3 (HIV-1)
[38] = target: HIV-1 Env of pseudovirus 6535.3 (HIV-1)
[39] = target: HIV-1 Env of pseudovirus CAP210.2.00.E8 (HIV-1)

B1: 10-1074 (antibody, V domains shown)
VH: QVQLQESGPGLVKPSETLSVTCSVSGDSMNNYYWTWIRQSPGKGLEWIGYISDRESATYNPSLNSRVVISRDTSKNQLSLKLNSVTPADTAVYYCATARRGQRIYGVVSFGEFFYYYSMDVWGKGTTVTVSS
VL: SYVRPLSVALGETARISCGRQALGSRAVQWYQHRPGQAPILLIYNNQDRPSGIPERFSGTPDINFGTRATLTISGVEAGDEADYYCHMWDSRSGFSWSFGGATRLTVL
- IC50 in TZM-bl assay [1]: 0.022 µg/mL
- IC80 in TZM-bl assay [1]: 0.07 µg/mL
- IC50 in TZM-bl assay [2]: > 10 µg/mL
- IC80 in TZM-bl assay [2]: > 10 µg/mL
- IC50 in TZM-bl assay [3]: 0.013 µg/mL
- IC80 in TZM-bl assay [3]: 0.058 µg/mL
- IC50 in TZM-bl assay [4]: > 10 µg/mL
- IC80 in TZM-bl assay [4]: > 10 µg/mL
- IC50 in TZM-bl assay [5]: 1.71 µg/mL
- IC80 in TZM-bl assay [5]: > 10 µg/mL
- IC50 in TZM-bl assay [6]: 0.075 µg/mL
- IC80 in TZM-bl assay [6]: > 10 µg/mL
- IC50 in TZM-bl assay [7]: > 10 µg/mL
- IC80 in TZM-bl assay [7]: > 10 µg/mL
- IC50 in TZM-bl assay [8]: 0.616 µg/mL
- IC80 in TZM-bl assay [8]: 2.4 µg/mL
- IC50 in TZM-bl assay [9]: 0.012 µg/mL
- IC80 in TZM-bl assay [9]: 0.032 µg/mL
- IC50 in TZM-bl assay [10]: > 10 µg/mL
- IC80 in TZM-bl assay [10]: > 10 µg/mL
- IC50 in TZM-bl assay [11]: > 10 µg/mL
- IC80 in TZM-bl assay [11]: > 10 µg/mL
- IC50 in TZM-bl assay [12]: > 10 µg/mL
- IC80 in TZM-bl assay [12]: > 10 µg/mL
- IC50 in TZM-bl assay [13]: > 10 µg/mL
- IC80 in TZM-bl assay [13]: > 10 µg/mL
- IC50 in TZM-bl assay [14]: 0.008 µg/mL
- IC80 in TZM-bl assay [14]: 0.024 µg/mL
- IC50 in TZM-bl assay [15]: > 10 µg/mL
- IC80 in TZM-bl assay [15]: > 10 µg/mL
- IC50 in TZM-bl assay [16]: 0.084 µg/mL
- IC80 in TZM-bl assay [16]: 0.395 µg/mL
- IC50 in TZM-bl assay [17]: > 10 µg/mL
- IC80 in TZM-bl assay [17]: > 10 µg/mL
- IC50 in TZM-bl assay [18]: 0.015 µg/mL
- IC80 in TZM-bl assay [18]: 0.043 µg/mL
- IC50 in TZM-bl assay [19]: 0.019 µg/mL
- IC80 in TZM-bl assay [19]: 0.083 µg/mL
- IC50 in TZM-bl assay [20]: > 10 µg/mL
- IC80 in TZM-bl assay [20]: > 10 µg/mL
- IC50 in TZM-bl assay [21]: > 10 µg/mL
- IC80 in TZM-bl assay [21]: > 10 µg/mL
- IC50 in TZM-bl assay [22]: 0.415 µg/mL
- IC80 in TZM-bl assay [22]: 2.97 µg/mL
- IC50 in TZM-bl assay [23]: 0.07 µg/mL
- IC80 in TZM-bl assay [23]: 0.207 µg/mL
- IC50 in TZM-bl assay [24]: 0.047 µg/mL
- IC80 in TZM-bl assay [24]: 0.113 µg/mL
- IC50 in TZM-bl assay [25]: > 10 µg/mL
- IC80 in TZM-bl assay [25]: > 10 µg/mL
- IC50 in TZM-bl assay [26]: 0.005 µg/mL
- IC80 in TZM-bl assay [26]: 0.015 µg/mL
- IC50 in TZM-bl assay [27]: 0.706 µg/mL
- IC80 in TZM-bl assay [27]: 4.49 µg/mL
- IC50 in TZM-bl assay [28]: > 10 µg/mL
- IC80 in TZM-bl assay [28]: > 10 µg/mL
- IC50 in TZM-bl assay [29]: 0.048 µg/mL
- IC80 in TZM-bl assay [29]: 0.222 µg/mL
- IC50 in TZM-bl assay [30]: 0.035 µg/mL
- IC80 in TZM-bl assay [30]: 0.119 µg/mL
- IC50 in TZM-bl assay [31]: 0.011 µg/mL
- IC80 in TZM-bl assay [31]: 0.037 µg/mL
- IC50 in TZM-bl assay [32]: 0.018 µg/mL
- IC80 in TZM-bl assay [32]: 0.049 µg/mL
- IC50 in TZM-bl assay [33]: 0.043 µg/mL
- IC80 in TZM-bl assay [33]: 0.197 µg/mL
- IC50 in TZM-bl assay [34]: > 10 µg/mL
- IC80 in TZM-bl assay [34]: > 10 µg/mL
- IC50 in TZM-bl assay [35]: > 10 µg/mL
- IC80 in TZM-bl assay [35]: > 10 µg/mL
- IC50 in TZM-bl assay [36]: 0.111 µg/mL
- IC80 in TZM-bl assay [36]: 0.828 µg/mL
- IC50 in TZM-bl assay [37]: > 10 µg/mL
- IC80 in TZM-bl assay [37]: > 10 µg/mL
- IC50 in TZM-bl assay [38]: 0.007 µg/mL
- IC80 in TZM-bl assay [38]: 0.022 µg/mL
- IC50 in TZM-bl assay [39]: > 10 µg/mL
- IC80 in TZM-bl assay [39]: > 10 µg/mL

Source: US11325966
